From patent US20220017960

B1: Xpress (Xpr)-tagged human USP15 wild type (WT) (protein)
chain: AEGGAADLDTQRSDIATLLKTSLRKGDTWYLVDSRWFKQWKKYVGFDSWDKYQMGDQNVYPGPIDNSGLLKDGDAQSLKEHLIDELDYILLPTEGWNKLVSWYTLMEGQEPIARKVVEQGMFVKHCKVEVYLTELKLCENGNMNNVVTRRFSKADTIDTIEKEIRKIFSIPDEKETRLWNKYMSNTFEPLNKPDSTIQDAGLYQGQVLVIEQKNEDGTWPRGPSTPNVKNSNYCLPSYTAYKNYDYSEPGRNNEQPGLCGLSNLGNTCFMNSAIQCLSNTPPLTEYFLNDKYQEELNFDNPLGMRGEIAKSYAELIKQMWSGKFSYVTPRAFKTQVGRFAPQFSGYQQQDCQELLAFLLDGLHEDLNRIRKKPYIQLKDADGRPDKVVAEEAWENHLKRNDSIIVDIFHGLFKSTLVCPECAKISVTFDPFCYLTLPLPMKKERTLEVYLVRMDPLTKPMQYKVVVPKIGNILDLCTALSALSGIPADKMIVTDIYNHRFHRIFAMDENLSSIMERDDIYVFEININRTEDTEHVIIPVCLREKFRHSSYTHHTGSSLFGQPFLMAVPRNNTEDKLYNLLLLRMCRYVKISTETEETEGSLHCCKDQNINGNGPNGIHEEGSPSEMETDEPDDESSQDQELPSENENSQSEDSVGGDNDSENGLCTEDTCKGQLTGHKKRLFTFQFNNLGNTDINYIKDDTRHIRFDDRQLRLDERSFLALDWDPDLKKRYFDENAAEDFEKHESVEYKPPKKPFVKLKDCIELFTTKEKLGAEDPWYCPNCKEHQQATKKLDLWSLPPVLVVHLKRFSYSRYMRDKLDTLVDFPINDLDMSEFLINPNAGPCRYNLIAVSNHYGGMGGGHYTAFAKNKDDGKWYYFDDSSVSTASEDQIVSKAAYVLFYQRQDTFSGTGFFPLDRETKGASAATGIPLESDEDSNDNDNDIENENCMHTN
B2: Xpress (Xpr)-tagged human USP15 mutant (L720R) (protein)
chain: AEGGAADLDTQRSDIATLLKTSLRKGDTWYLVDSRWFKQWKKYVGFDSWDKYQMGDQNVYPGPIDNSGLLKDGDAQSLKEHLIDELDYILLPTEGWNKLVSWYTLMEGQEPIARKVVEQGMFVKHCKVEVYLTELKLCENGNMNNVVTRRFSKADTIDTIEKEIRKIFSIPDEKETRLWNKYMSNTFEPLNKPDSTIQDAGLYQGQVLVIEQKNEDGTWPRGPSTPNVKNSNYCLPSYTAYKNYDYSEPGRNNEQPGLCGLSNLGNTCFMNSAIQCLSNTPPLTEYFLNDKYQEELNFDNPLGMRGEIAKSYAELIKQMWSGKFSYVTPRAFKTQVGRFAPQFSGYQQQDCQELLAFLLDGLHEDLNRIRKKPYIQLKDADGRPDKVVAEEAWENHLKRNDSIIVDIFHGLFKSTLVCPECAKISVTFDPFCYLTLPLPMKKERTLEVYLVRMDPLTKPMQYKVVVPKIGNILDLCTALSALSGIPADKMIVTDIYNHRFHRIFAMDENLSSIMERDDIYVFEININRTEDTEHVIIPVCLREKFRHSSYTHHTGSSLFGQPFLMAVPRNNTEDKLYNLLLLRMCRYVKISTETEETEGSLHCCKDQNINGNGPNGIHEEGSPSEMETDEPDDESSQDQELPSENENSQSEDSVGGDNDSENGLCTEDTCKGQLTGHKKRLFTFQFNNLGNTDINYIKDDTRHIRFDDRQLRLDERSFRALDWDPDLKKRYFDENAAEDFEKHESVEYKPPKKPFVKLKDCIELFTTKEKLGAEDPWYCPNCKEHQQATKKLDLWSLPPVLVVHLKRFSYSRYMRDKLDTLVDFPINDLDMSEFLINPNAGPCRYNLIAVSNHYGGMGGGHYTAFAKNKDDGKWYYFDDSSVSTASEDQIVSKAAYVLFYQRQDTFSGTGFFPLDRETKGASAATGIPLESDEDSNDNDNDIENENCMHTN

Target: FLAG-tagged TRIM25, Q14258
Sequence (Q14258 whole entry): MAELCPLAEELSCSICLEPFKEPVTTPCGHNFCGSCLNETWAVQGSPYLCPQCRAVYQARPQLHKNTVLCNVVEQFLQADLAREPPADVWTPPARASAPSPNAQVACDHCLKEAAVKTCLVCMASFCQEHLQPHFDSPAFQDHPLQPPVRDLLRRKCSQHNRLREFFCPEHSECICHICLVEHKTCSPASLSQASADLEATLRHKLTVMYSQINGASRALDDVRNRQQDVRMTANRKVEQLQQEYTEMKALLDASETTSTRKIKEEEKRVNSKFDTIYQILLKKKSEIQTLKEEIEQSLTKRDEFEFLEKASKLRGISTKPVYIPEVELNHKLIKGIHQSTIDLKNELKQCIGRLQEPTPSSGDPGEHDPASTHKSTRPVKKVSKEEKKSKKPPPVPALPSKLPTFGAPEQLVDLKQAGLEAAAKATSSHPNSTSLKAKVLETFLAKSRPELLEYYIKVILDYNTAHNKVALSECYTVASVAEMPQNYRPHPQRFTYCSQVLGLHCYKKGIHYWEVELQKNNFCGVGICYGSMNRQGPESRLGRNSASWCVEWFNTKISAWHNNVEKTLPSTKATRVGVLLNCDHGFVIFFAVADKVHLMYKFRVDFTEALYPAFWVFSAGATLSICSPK

| Protein | deubiquitination of TRIM25 (anti-FLAG immunoprecipitation, immunoblot with anti-ubiquitin and anti-TRIM25 antibodies) | deubiquitinase activity towards TRIM25 (anti-FLAG immunoprecipitation, immunoblot with anti-ubiquitin and anti-TRIM25 antibodies) |
| --- | --- | --- |
| B1 | we observed that TRIM25 is a target for deubiquitination by USP15 | – |
| B2 | – | we observed a reduced deubiquitinase activity in the L749R variant (the corresponding human L720R isoform was tested), when compared to WT |
